# How the values were obtained:
# [1] = target: dipeptidyl peptidase IV (DPP4), the MERS-CoV receptor, His-tagged (human) (UniProt P27487); assay: ELISA, spike coated, His-tagged hDPP4 titrated
# [2] = target: dipeptidyl peptidase IV (DPP4), the MERS-CoV receptor, His-tagged (human) (UniProt P27487)
# Sequence of dipeptidyl peptidase IV (DPP4), the MERS-CoV receptor, His-tagged (human) (P27487 29-766 limits assumed): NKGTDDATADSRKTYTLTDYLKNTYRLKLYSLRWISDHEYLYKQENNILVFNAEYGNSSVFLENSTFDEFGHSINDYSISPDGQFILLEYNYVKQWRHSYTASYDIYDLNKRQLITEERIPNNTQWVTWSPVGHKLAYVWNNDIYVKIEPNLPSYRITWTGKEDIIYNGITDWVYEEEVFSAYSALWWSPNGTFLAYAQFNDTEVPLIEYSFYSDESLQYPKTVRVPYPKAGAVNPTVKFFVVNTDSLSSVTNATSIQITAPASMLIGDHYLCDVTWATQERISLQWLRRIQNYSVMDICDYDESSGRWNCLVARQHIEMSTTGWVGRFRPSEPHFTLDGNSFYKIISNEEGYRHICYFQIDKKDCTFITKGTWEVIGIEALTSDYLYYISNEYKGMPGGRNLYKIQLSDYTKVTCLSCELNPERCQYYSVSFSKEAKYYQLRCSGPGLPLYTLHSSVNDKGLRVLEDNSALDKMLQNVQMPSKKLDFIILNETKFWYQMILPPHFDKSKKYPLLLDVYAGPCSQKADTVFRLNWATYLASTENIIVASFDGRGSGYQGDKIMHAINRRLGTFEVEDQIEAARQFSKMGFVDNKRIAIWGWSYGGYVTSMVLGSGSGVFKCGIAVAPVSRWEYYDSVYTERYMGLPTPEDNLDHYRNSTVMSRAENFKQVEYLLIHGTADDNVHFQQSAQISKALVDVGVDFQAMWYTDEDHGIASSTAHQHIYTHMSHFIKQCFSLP
substance,measurement,setting,value
"wild-type BV2361 protein (SEQ ID NO: 2), native SARS-CoV-2 Spike (S) polypeptide (from UniProt P0DTC2 14-1273) (other; other documents disagree on this pair)",EC50,[1],> 5 µg/mL
same,IC50,[2],> 5 µg/mL
